Assay results reported in patent US20030211563A1 (UNIVERSITY OF VIRGINIA PATENT FOUNDATION, published 2003).

Molecular target: T1, tssk 2 fused to the GAL4 DNA binding domain (DNA-BD) (human, UniProt P04386 1-147 (Saccharomyces cerevisiae entry), limits assumed)
T1 construct: Yeast two-hybrid bait in reporter strain AH109; also called bait gene (tssk 2); TSSK2 fusion protein with the DNA-BD
Assay: yeast two-hybrid, growth in His-free medium
Description: In this experiment, a bait gene (tssk 2) was first transformed into the reporter strain as a fusion to the GAL4 DNA binding domain (DNA-BD). A second plasmid that expressed tsks as fusion to the GAL 4 activation domain (AD) was also introduced into the AH109 reporter strain. Western blots were performed to confirm expression of fusion proteins in yeast. […] This interaction was used as a positive control. […] Neither GAL-AD alone nor the fusion proteins between GAL-AD and TSKS or GAL-AD and SV40 Large T antigen had the ability to activate transcription of the His gene.

binding result: no binding
B1: GAL4 activation domain alone (GAL-AD plasmid) (other, UniProt P04386 768-881, looked up)
chain: ANFNQSGNIADSSLSFTFTNSSNGPNLITTQTNSQALSQPIASSNVHDNFMNNEITASKIDDGNNSKPLSPGWTDQTAYNAFGITTGMFNTTTMDDVYNYLFDDEDTPPNPKKE
notes: Empty prey control in the yeast two-hybrid experiment; also called GAL-AD alone
